Results: PMC4840375

Experiments:
[1] = target: TraH expressed in E. faecalis JH2-2 (pEU327-RBS-traH) (Enterococcus faecalis (plasmid pIP501)); experiment: cross-linking; in vivo, E. faecalis JH2-2 (pEU327-RBS-traH) cells in early log phase, formaldehyde 0.5–2% in PBS for 10 minutes; SDS-PAGE and western blot
[2] = target: TraH, full length, purified and reconstituted in DDM micelles (Enterococcus faecalis (plasmid pIP501)); experiment: cross-linking; in vitro, 8 μg purified protein, 300 mM NaCl, 100 mM bicine, 1 mM DTT, glutaraldehyde 0–1% (v/v), 15 min at RT; full-length TraH kept in DDM micelles; SDS-PAGE and western blot
[3] = target: TraH, full length, purified and reconstituted in DDM micelles (Enterococcus faecalis (plasmid pIP501)); experiment: native gel or EMSA; semi-native PAGE: sample buffer without SDS and reducing agent, 4 °C, 12.5% native gels, running buffer with 0.1% SDS; full-length TraH in DDM micelles; western blot
[4] = target: TraH, full length, purified and reconstituted in DDM micelles (Enterococcus faecalis (plasmid pIP501)); experiment: SEC; analytical SEC of full length TraH reconstituted in DDM micelles; 70 kDa taken for the micelle; apparent molecular weight

TraH expressed in E. faecalis JH2-2 (pEU327-RBS-traH) (natural protein)
stoichiometry N [1]: 2

TraH, full length, purified and reconstituted in DDM micelles (natural protein)
stoichiometry N [2]: 2
stoichiometry N [3]: 2
stoichiometry N [4]: 4
